Experimental data: the nanobody polyreactivity screen of Harvey et al. (2022)

Assay: yeast display, Sf9 membrane polyspecificity reagent, FACS + sequencing; frameworks hold sequencing errors
Method in brief: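 Galactose induction of a Saccharomyces cerevisiae BJ5465 synthetic nanobody display library ran 36–48 hours. The cells were then stained for 1 hour at 4 °C with 10% biotinylated, detergent-solubilized Sf9 membrane reagent, pulled down on streptavidin microbeads and FACS-sorted into low and high (top ~1%) gates on expression and reagent-binding fluorescence. Labels for polyreactivity follow the gate of origin.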

Sequence	polyreactivity (PSR sort gate)
QVQLVESGGGLVQAGGSLRLSCAASGRTFDSNAMGWYRQAPGKERELVAAISGSGDTTYYADSVKGRFTISRDNAKNTVYLQMNSLKPEDTAVYYCAARWGRSSGGGDYWGQGTQVTVSS	low polyreactivity
QVQLVESGGGLVQAGGSLSLSCAASGLIFYYYAMGWYRQAPGKERELVAAITRGGRTYYADSVKGRFTISRDNAKNTVYLQMNSLKPEDTAVYYCAAVTRVYGKTMGYWGQGTQVTVSS	high polyreactivity
QVQLVESGGGLVQAGGSLRISCAASGSTFGRNAMGWYSQAPGKERELVAAISSGGSTSYADSVKGRFTISRDNAKYTVYLQMNSLKPEDTAVYYCAAHSVGSQYDYWGQGTQVTVSS	low polyreactivity
QVQLVESGGGLVQAGGSLRLSCAASGRIFYYNTMGWYRQAPGKERELVAAISSTASTTYADSVKGRFTISRDNAKNTDYIQMNSLKPEDTAVYYCAADHRYHWANPRGYYYWGQGTQVTVSS	high polyreactivity
QVQLVESGGGLVQAGCSLRLSCAASGFIFTSYAMGWYRQAPGKERDLVAAITRSGGRTYYADSVKGRFTISLDNAKITVYLQMNSLKPEDTAVYYCAAVTFYQSPARGYWGQGTQVTVSS	high polyreactivity
QVQLQESGGLVQAGGSLRMSCAASGSISGRNVMGWYRQAPGKEREFVASITDGSSTNYADSVKGRFTISRDNAKNTLFLQMNSLKPKDTAVYYCAAYAQRGKSFGYWGRGTQVTVSS	low polyreactivity
QVQLVESGGGLVQAGGSLRLSCAASGLTFYYYAMGWYRQAPGKERELVAAITGSGGRTSYADSVKGRFTISRDNAKNTVYLQMNSLKPEDTAVYYCAARNKRRGYPWQGQQKVLNFDYWGQGTQVTVSS	high polyreactivity
QVQLVESGGGLLQAGGSLRLSCAASGRTSGRYAMGWYRQAPGKERELVAAISSGGRTSYADSVKGRFTISRDNAQNTVDLQMISLKPEDTAVYYCAAVFVLARAYNYWGQGTLVTVSS	high polyreactivity
QVQLVESGGGLVQAGGSLRLSCAASGITFAFYDMGWYRQAPGKERELVAAISYSGGGTYYADSVKGRFTISRDNAKNTVYLQMNSLKPEDTAVYYCAADPKTHALFGEDYWGQGTQVTVSS	low polyreactivity
QVQLEESGAGLVQAGGSLRLSCAASVFTFCCTTMGRSRPAPGKESELVATISRTGGITYYADSVKGRFTISRDNAKNTVNLQMNSLKPEDTAVYYCILRYYWGQVTQVTVSS	high polyreactivity
QVQLVESGGGLVQSGGSLRLSCAASGITFYVYTMGWYRQAPGKERELVAAINGSGGSTNYADSVKGRFTISRDNAKNTVHLQMNSLKPEDTAVYYCAADWSLRLYDYWGQGTQVTVSS	low polyreactivity
QVQLVESGGGLVQAGGSLRLSCAASGNTFRLYGMGWYRQAPGKERELVAAIRSGDRTYYADSVKGRFTISRDNAKNTVYLQMNSLKPEDTAVYYCAARVNLSKLFGYWGQGTQVTVSS	high polyreactivity
QVQLVESGGGLVQAGGSLRLSCAASGSIFEGNGMGWYRQAPGKERELVASITRSGGSTYYADSVKGRFTISRDNAKNTVYLQMNSLKPEDTAVYYCAVSRDSYGGKGSVLYDYWGQGTQVTVSS	low polyreactivity
QVQLVESGGGLVQAGGSLRLSCAASGPIFPAYAMGWYRQAPGKERELVASIRRGGITYADSVKGRFTISRDNAKNTVYLQMNSLKPEDTAVYYCNADYRGWGYHMDYWGQGTQVTVSS	low polyreactivity
QVQLVESGGGLVQAGGSLRLSCAASGRIFRYNTMGWYRQAPGKERELVAAINSSGGRTYYADSVKGRFTISRDNAKNTVYLQMNSLKPEDTSVYYCAAVIYVLSGPGYDYWGQGTQVTVSS	high polyreactivity
QVQLEESGGGLVQAGGSLRLSCAASGSIFRRNVMGWYRQAPGKERELVADINYSGGSTFYADSVKGRFTISRDNAKNTVYLQMNSLKPEDTAVYYCKSSPYREKHGYWGQGTQVTVSS	low polyreactivity
QVQLVESGGGLDQAGGSLRLSCAAYGRILHFYAMGWYRQAPGKERELVSAIRWSSGRTYYADSVKGRFTISRDNAKNTVYLQMNSLKPEDTAVYYCAANNGYGMDYWGQGTQVTVSS	high polyreactivity
QVQLVESGGGLVQAGGSLRLSCAASGSTFYDYVMGWYRQAPGKERELFAAISRTGASTYYADSVKGRFTISRDNAKNTVYLQMNSLKPVDTAVYYCAADSDTVRYYYWGQGTQVTVSS	high polyreactivity
QVQLVESGGGLVQAGGSLRLSCAASGFTFKYYAMGWYRQAPGKERELVATITRSGGNTYYADSVKGRFTISRDNAKNTVYLQMNSLKPEDTAVYYCNTRRPGKYDYWGQGTQVTVSS	high polyreactivity
QVQLVESGGGLVQAGGSLRLSCAASGIIFTYNAMGWYRQPPGKERELVAAISASGSSTYYADSVKGRFTISLDNAKNTVYLQMNSLKPEDTAVYYCAARTRRGLARYDYWGQGTQGTVSS	high polyreactivity
QVQLVESGGGLVQAGGSLRLSCAASGTIFTINAMGWYRQAAGKERELVAAISWSGAHTYYADSVKGRFTISRDNAKNTVFLQMNSLKPEDTAVYYCATGYNYLERNTGYFHRFDYWGQGTQVTVSS	low polyreactivity
QVQLVESGGGLVQAGGSLRLSCAASGRIFASYAMGWYRQAPGKERELVAAISGSGASTYYADSVKGRFTISRDNAKNTVYLQMNSLKPEDTAVYYCAAKATSEGDEYWGQGTQVTVSS	high polyreactivity

Sequence	polyreactivity (PSR sort gate)
QVQLVESGGGLVQAGGSLRLSCAASGSTFLVNAKGWYRQAPGKEWEFVAAITGNAGSTYYADSVKGRFTISRDNEKYTVYLQMNSLKPEDTAVYYCAAALPGYDGDYWGQGTQVTVSS	low polyreactivity
QVQLVESGGGLVQAGGSLRISCAASGRTFFFNAMGWYRQAPGKERELVAAISRTGRTNYADSVKGRFTISRDHAKNTVYLQMNSLKPEDTAVYYCAKTSYYLFGYWGHGTQVTVSS	high polyreactivity
QVQLVESGGGLVQAGGSLRLSCAASGFSFRYYAMGWYRQAPGKERELVAAISSSGTRTYYADSVKGRFTISRDNATTTVYLQMNSLKPEDTAVYYCNAGSPTSTVDYWGQGTQVTVSS	high polyreactivity
QVQLVESGGGLVHAGGSLRLSCAASGSIYGANDMGWYRKATGKERELVAAITRSGTRTYYADSVKGLFTISRDNAKNTVYLQMNSLKPEDTAVYYCAAVLRLSTLTTDFGYWGQGTQVTVSS	high polyreactivity
QVQLVESGGGLVQAGGSLRLSCAASGRIFFYYAMGWYRQAPGKERELVAAISQSGGSSYYADSVKGRFTISRDNAKNTVYLQLTSLKPEDTAVYYCAADDRYYTYGYDYWGQGTQVTVSS	low polyreactivity
QVQLVESGGGLVQAGGSLRLSCAASGRTFKPNAMGWYRQAPGKERELVASINDVGSTNYADSVKGRFTISRDNAKNTVYLQMNSLKPEDTAVYYCAADPYWYPYYGYYILYDYWGQGTHVTVSS	low polyreactivity
QVQLVESGGGLVQAGGTLRISCAASGRIYAGYVMGWYRQAPRKERELVAAISGSGAYTYYADSVKGRFTISRDYAKNTVYLQMNRLKPEDSAVYYCAADKPGIFSRFDYWGQGTQVSVSS	low polyreactivity
QVQLVESGGGLVQAGASLRLSCAASGSIFTRNTMGWYRQAPGKERELVARISGGRTNYADSVKGRFTISRDNAKNTVYLQMYSLKPVDTAVYYCAARGLYTPTKRSGDPYYYWGQGSQVTVSS	high polyreactivity
QVQLVESGGGLVQAGGSLRISCAASGFTFRYYAMGWYRQAPGKERELVATISTGSGVSTYYADSVKGRFTISRDNAKNTVYLQMNSLKPEDTAVYYCAADYDSYYAYRTPYGYWGQGTQVTVSS	low polyreactivity
QVQLVESGGGLVQAGGSLRLSCAASGSIFGGYTMGWYRQAPGKERELVAGITISGGSTYYADSVKGRFTISRDNAKNTVYLQMNSLKPEDTAVYYCAAVSFVVSSWGYGYWGQGTQVTVSS	low polyreactivity
QVQLVESGGGLVQAGGSLRLSCAASGRIFSLYAMGWYRQAPGKERELVAGITWRGGSTYYADSVKGRFTISRDNAKNTVYLQMNSMKPEDTAVYYCAARPWNWRDYDYWGQGTQVTVSS	high polyreactivity
QVQLVESGGGLVQAGGSLRLSCAASGLTFGDYALGWYRQAPGKDRELVAVISRSGGSTYYADSVKGRFTISRDNAKNTVYLQMNSLKPEDTAVYYCAAEYYSYRYDGDYWGQGTQVTVSS	low polyreactivity
QVQLVESGGGLVQAGGSLRLSCAASGSIFHPYAMGWYRQAPGKERELVAAISKSGGNTYYADSVKGRFTISRDNAKNTVYLQMNSLKPEDTAVYYCAALDYWGQGTLVTVSS	low polyreactivity
QVQLVESGGCLVKAGGSLRLSCAASGSTFSDNAIGWSRQAPGKERELVAAINYSDGSTNYADSVKGRFTISRDNAKNTVYLQINSQQPEDTAVYYCAVDIYFWSYGWWGPYDYWGQGTQVTVSS	low polyreactivity
QVQLVESGGGLVQAGGSLRLSCAASGRTFWFYGMGWYREAAGKEREFVARISGSGGSTYYADSVKGRFTISRDNAKNTVYLQMNSLKPEDTAVYYCAKDNRYPYPSGLDYWGQGTQVTVSS	high polyreactivity
QVQLEESGGGVVQAGGSLRLSCAASGRTFRWYAMGWYRQAPGKERELVATINSGGTTNYADSVKGRFTISRDNAKNTVYLQMNSLKPEDTAVYYCAATNRGPGHDYWGQGTQVTVSS	low polyreactivity
QVQLVESGGGLVQAGGSLRLSCAASGSTFNWYAMGWYRQAPGKERELVASIRISGGSTYYADSVKGRFTISRDNAKNTVYLQMNSLKPEDTAVYYCNAKLFIRWFTYDYWGQGTQVTVSS	low polyreactivity
QVQLVESGGGLVQAGGSLRLSCAASGSTFSRYAMGWYRQAPGKERELVAAIRRSAGSTYYADSVKGRFTISRDNAKNTVYLQMNSLKPEDTAVYYCAAAGRYDYWGQGTQVTVSS	high polyreactivity
QVHLVESGRGLVQAGGSLRLSCAASGRTLYRYAMGWYRQAPGKERELVAAINQSGGRTYYADSVKGRFTISRDNAKNTVYFQMNSLKPEDTAVYYCAASPVRVGKVIDGRDYWGQGTQVTVSS	high polyreactivity
QVQLVESGGGLVQAGGSLRLSCAASGRIFEDYAMGWYRQAPGKERELVARISSGDSTNYADSVKGRFTISRDNAKNTVYLQMNSLKPEDTAVYYCNADRGDLYELRGSGYLDGYWGQGTQVTVSS	low polyreactivity
QVQLVESGGGLVQAGGSLRLSCAASGSTFYTNAMGWSRQAPGKERELVASIDRGGGSTYYAESVKGRFTISRDNAKNTVYLQMNSLKPEDTAVYYCAASFDGRYWGYYYWGQGTKVTVSS	low polyreactivity
